Reference: article PMC6293278

Target: Taxol-stabilized microtubules (polymerized purified tubulin) (UniProt P02550)
Assay: Taxol-stabilized microtubule co-sedimentation assay
Conditions: 3:1 MT:MAP1S LC ratio; MAP1S LC pre-incubated with CDKL5 (WT according to the lane labels of panel E; the key of panel F prints CDKL5 KD); n = 3 technical …; parent: est. 13; read off a plot

- other: Soluble MAP1S LC (%): 4.2%
Substance: Strep(II)-MAP1S LC WT (microtubule-associated protein 1S light chain) (from UniProt P0C5W1) S786A; S812A
